3 molecules from patent US20140322332A1 (GENUS ONCOLOGY, published 2014) can be followed below.

For assay [1], the target named is T1, human MUC1 in human carcinoma cells (human, UniProt P15941 1097-1255).
T1 sequence: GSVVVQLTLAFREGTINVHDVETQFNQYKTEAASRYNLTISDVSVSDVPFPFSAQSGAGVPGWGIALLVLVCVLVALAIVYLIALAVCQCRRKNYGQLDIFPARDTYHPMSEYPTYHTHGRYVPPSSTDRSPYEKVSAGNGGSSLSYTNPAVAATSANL
The assay is described as follows: cell-based or functional assay.

Assay [2] addresses dopamine D1 receptor (Homo sapiens (Human)) (UniProt P21728). Kind of assay: receptor binding screen, inhibition of radioligand binding.
The target of assay [3] is human MUC1 in human carcinoma cells (human) (UniProt P15941). The assay is described as follows: cell-based or functional assay.

Positions of bridges follow the written chain, without caps; N, C: chain ends. Non-standard residues stand in square brackets, D forms with d.

Chain of dopamine D1 receptor (Homo sapiens (Human)) (P21728 whole entry, form in doubt): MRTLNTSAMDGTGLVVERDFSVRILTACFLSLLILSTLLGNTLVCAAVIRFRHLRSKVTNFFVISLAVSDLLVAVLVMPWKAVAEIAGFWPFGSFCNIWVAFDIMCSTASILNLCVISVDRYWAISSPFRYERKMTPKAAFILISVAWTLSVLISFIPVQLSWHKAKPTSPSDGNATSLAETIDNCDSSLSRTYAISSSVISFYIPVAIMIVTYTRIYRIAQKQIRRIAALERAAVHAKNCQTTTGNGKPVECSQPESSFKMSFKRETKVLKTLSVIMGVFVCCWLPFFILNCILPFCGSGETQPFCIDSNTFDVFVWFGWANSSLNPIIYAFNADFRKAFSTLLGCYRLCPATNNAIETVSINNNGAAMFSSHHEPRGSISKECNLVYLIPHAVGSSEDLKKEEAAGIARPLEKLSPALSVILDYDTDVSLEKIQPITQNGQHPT

In assay [1], GO-203 (peptide) displayed a % inhibition of proliferation, H1975 lung cancer cells, 5 µM peptide daily, viable cells by trypan blue of 75.8% and a % inhibition of proliferation, ZR-75-1 breast cancer cells, 5 µM peptide daily, viable cells by trypan blue of 44%.

B1: GO-203-2c (peptide)
peptide: Ac-[dR][dR][dR][dR][dR][dR][dR][dR][dR][dC][dQ][dC][dR][dR][dK][dN]-NH2
modifications: disulfide 10-12
SMILES: CC(=O)N[C@H](CCCNC(=N)N)C(=O)N[C@H](CCCNC(=N)N)C(=O)N[C@H](CCCNC(=N)N)C(=O)N[C@H](CCCNC(=N)N)C(=O)N[C@H](CCCNC(=N)N)C(=O)N[C@H](CCCNC(=N)N)C(=O)N[C@H](CCCNC(=N)N)C(=O)N[C@H](CCCNC(=N)N)C(=O)N[C@H](CCCNC(=N)N)C(=O)N[C@@H]1CSSC[C@H](C(=O)N[C@H](CCCNC(=N)N)C(=O)N[C@H](CCCNC(=N)N)C(=O)N[C@H](CCCCN)C(=O)N[C@H](CC(N)=O)C(N)=O)NC(=O)[C@@H](CCC(N)=O)NC1=O
A word on the IC50: it is the concentration that gives 50% inhibition. Low readings indicate greater potency in that assay, high ones weaker potency in that assay. With B1, in assay [1], the “IC50 of inhibition of proliferation of a variety of human carcinoma cell lines in vitro” value lay within 2 to 5 µM. The IC50 in assay [2] worked out at 10.5 µM.

For Ac-[dR][dR][dR][dR][dR][dR][dR][dR][dR][dC][dQ][dC][dR][dR][dK][dN]-NH2 (cysteine pairing not given here) [GO-203-2], in assay [3], the % Inhibition of cell viability, A549 NSCLC, 5 µM was determined as 75.4%; the % Inhibition of cell viability, H1975 NSCLC, 5 µM is 52.9%; the % Inhibition of cell viability, MCF-7 breast carcinoma, 5 µM came to 91.4%; the % Inhibition of cell viability, ZR-75-1 breast carcinoma, 5 µM was found to be 50.7%. In assay [3], this molecule yielded a % inhibition of proliferation, H1975 lung cancer cells, 5 µM peptide daily, viable cells by trypan blue of 63.6%; a % inhibition of proliferation, ZR-75-1 breast cancer cells, 5 µM peptide daily, viable cells by trypan blue of 65.5%; an IC50 of inhibition of proliferation of a variety of human carcinoma cell lines in vitro of 2 to 5 µM.
